# Reference: publication PMC7591906, “pHLIP ICG for delineation of tumors and blood flow during fluorescence-guided surgery” (Scientific Reports, 2020)
# “Also recorded” adds a separate entry of the source. Peptide text beside a SMILES is read from it. * marks the point of attachment. X1 = CC1(C)C(/C=C/C=C/C=C/C=C2/N(CCCCCC(=O)NCCN3C(=O)CC(*)C3=O)c3ccc4ccccc4c3C2(C)C)=[N+](CCCCS(=O)(=O)[O-])c2ccc3ccccc3c21
# Experiments:
# [1] = Local tolerance/irritancy in New Zealand white rabbits (GLP); type: in vivo; details: single 0.124 and 1.86 mg/kg, i.v., intra-arterial, perivenous and subcutaneous
# Method: The objective of this GLP study performed at CRL was to compare the i.v., intra-arterial, perivascular and subcutaneous routes for potential irritation following a single injection of pHLIP ICG in the rabbits.
# The following parameters and end points were evaluated in this study: clinical signs, local irritation assessment, body weights (for dose calculation only), and histopathology of the injection sites. There were no clinical signs, local irritation or any microscopic changes associated with pHLIP ICG during the study.
# progesterone receptor B = molecular target: T1, progesterone receptor B (Homo sapiens, UniProt P06401); assay: Progesterone receptor B radioligand binding assay
# T1 construct: purchased Eurofins Panlabs, Inc
# T1 sequence (P06401 1-933): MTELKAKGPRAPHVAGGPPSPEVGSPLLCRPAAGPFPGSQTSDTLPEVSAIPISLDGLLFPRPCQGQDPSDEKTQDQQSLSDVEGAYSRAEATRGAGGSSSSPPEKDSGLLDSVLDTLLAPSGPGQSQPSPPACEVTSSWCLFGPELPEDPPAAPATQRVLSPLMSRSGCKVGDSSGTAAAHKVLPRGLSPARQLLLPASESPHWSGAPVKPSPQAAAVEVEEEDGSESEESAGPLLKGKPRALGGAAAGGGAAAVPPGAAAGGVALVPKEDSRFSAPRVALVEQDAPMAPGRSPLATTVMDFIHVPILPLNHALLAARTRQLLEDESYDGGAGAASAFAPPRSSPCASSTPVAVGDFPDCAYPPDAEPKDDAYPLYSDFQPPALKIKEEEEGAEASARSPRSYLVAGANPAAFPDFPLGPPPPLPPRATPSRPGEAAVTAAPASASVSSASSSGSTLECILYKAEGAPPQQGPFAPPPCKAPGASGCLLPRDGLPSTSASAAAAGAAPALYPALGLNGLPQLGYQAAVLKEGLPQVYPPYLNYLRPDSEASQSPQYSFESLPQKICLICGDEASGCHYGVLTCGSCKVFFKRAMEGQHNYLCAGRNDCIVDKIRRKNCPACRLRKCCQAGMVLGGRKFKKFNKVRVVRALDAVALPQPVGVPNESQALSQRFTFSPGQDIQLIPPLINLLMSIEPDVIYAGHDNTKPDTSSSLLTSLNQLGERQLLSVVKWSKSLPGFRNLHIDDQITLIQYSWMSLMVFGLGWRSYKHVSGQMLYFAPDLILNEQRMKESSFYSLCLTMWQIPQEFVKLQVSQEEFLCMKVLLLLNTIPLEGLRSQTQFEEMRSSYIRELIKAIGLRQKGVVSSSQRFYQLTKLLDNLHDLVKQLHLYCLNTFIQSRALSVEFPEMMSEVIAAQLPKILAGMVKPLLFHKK
# Method: The pHLIP ICG enzyme binding assays were performed by Eurofins Panlabs, Inc. according to standard assay protocols. The following enzymes were used in the binding assay with 2 µM of pHLIP ICG : acetyl cholinesterase; peptidase (angiotensin converting enzyme); ATPase (Na^+/K^+, pig heart); CTSG peptidase (cathepsin G); cyclooxygenases COX-1 and COX-2; monoamine oxidases MAO-A and MAO-B; phosphodiesterases PDE3 and PDE4D2; protein tyrosine kinase (insulin receptor); protein tyrosine kinase (LCK); protein serine/threonine kinase (PKC, non-selective); adenosine A1 and A2A; adenosine transporter; adrenergic α1A, α1B, α1D, α2A, α2B, β1 and β2; norepinephrine transporter (NET); androgen (testosterone); angiotensin AT1; bradykinin B2; calcium channels L-type (benzothiazepine, dihydropyridine, phenylalkylamine); calcium channel N-type; cannabinoid CB1 and CB2; chemokine CCR1; cholecystokinin CCK1 (CCKA) and CCK2 (CCKB); dopamine D1, D2L and D2S; dopamine transporter (DAT); endothelin ETA; estrogen ERα; GABA transporter; GABAAs (flunitrazepam, central; Ro-15-1788, hippocampus and chloride channel, TBOB); glucocorticoid; glutamate (AMPA, kainate, agonism NMDA, glycine NMDA, phencyclidine NMDA, polyamine NMDA, and mGlu5 metabotropic); glycine (strychnine-sensitive); histamine H1 and H2; chemokine CXCR2 (IL-8RB); cysteinyl leukotriene (CysLT1); melanocortin MC1 and MC4; muscarinic M1, M2, M3, and M4; tachykinin NK1; neuropeptide Y Y1; nicotinic acetylcholine α1 (bungarotoxin) and α3β4; opiate δ1 (OP1, DOP), κ (OP2, KOP), and μ (OP3, MOP); platelet activating factor (PAF); potassium channels (KATP and hERG); PPARγ; serotonin (5-hydroxytryptamine) 5-HT1A, 5-HT1B, 5-HT2A, 5-HT2B, 5-HT2C, and 5-HT3; serotonin transporter (SERT); sodium channel (site 2); vasopressin V1A; progesterone (PR-B). The most significant inhibitory effect of pHLIP ICG was observed on progesterone B and was followed by an additional study to identify IC50 values, which were determined by a non-linear least square regression analysis using MathIQTM (ID Business Solutions Ltd., UK). The Ki values were calculated by the equation from Cheng and Prusoff [Cheng, Y., Prusoff, W.H., Biochem. Pharmacol. 22:3099-3108, 1973] using the observed IC50 of pHLIP ICG , the concentration of radioligand employed in the assay, and the historical values for the KD of the ligand (Eurofins Panlabs data). The Hill coefficient (nH), defining the slope of the competitive binding curve, was calculated using MathIQTM. The IC50, Ki, and nH values were established for pHLIP ICG and compared to the known progesterone agonist, R-2050 (Figure S3).
# Figure SI,3. […]
# [2] = Pharmacological safety assessment on the central nervous system (FOB) in rats (GLP); type: in vivo, Sprague Dawley rats; details: single i.v. bolus 0.218, 0.248, 3.72 and 7.44 mg/kg, up to 24 h post-dose
# Method: The objective of this GLP study performed at CRL was to evaluate the pharmacological effects of pHLIP ICG on the central nervous system following a single i.v. bolus injection in rats.
# Functional observation battery (FOB) tests were performed once prior to dosing and again at 5 minutes, 3 and 24 hours post-dose and included the following assessments: palpebral closure, eye prominence, pupil size, pupillary response, lacrimation, salivation, body tone, extensor thrust, pinna reflex, tactile reflex, overall animal reactivity, auricular startle, air righting reflex, body temperature (rectal). Additional evaluations consisted of mortality and clinical observations.
smiles,measurement,setting,value
CC(C)C[C@H](NC(=O)[C@H](Cc1ccc(O)cc1)NC(=O)[C@H](C)NC(=O)[C@H](CCCNC(=N)N)NC(=O)[C@H](Cc1c[nH]c2ccccc12)NC(=O)[C@@H]1CCCN1C(=O)[C@H](CC(N)=O)NC(=O)[C@H](CCC(N)=O)NC(=O)[C@H](CC(=O)O)NC(=O)[C@H](CC(=O)O)NC(=O)[C@H](CSC1CC(=O)N(CCNC(=O)CCCCCN2/C(=C/C=C/C=C/C=C/C3=[N+](CCCCS(=O)(=O)[O-])c4ccc5ccccc5c4C3(C)C)C(C)(C)c3c2ccc2ccccc32)C1=O)NC(=O)[C@H](C)N)C(=O)N[C@@H](CC(=O)O)C(=O)N[C@@H](CC(C)C)C(=O)N[C@@H](CC(C)C)C(=O)N[C@@H](Cc1ccccc1)C(=O)N1CCC[C@H]1C(=O)N[C@H](C(=O)N[C@@H](CC(=O)O)C(=O)N[C@H](C(=O)N[C@@H](CC(C)C)C(=O)N[C@@H](CC(C)C)C(=O)N[C@@H](CC(C)C)C(=O)N[C@@H](CC(=O)O)C(=O)N[C@@H](CC(C)C)C(=O)N[C@@H](CC(C)C)C(=O)N[C@@H](Cc1c[nH]c2ccccc12)C(=O)N[C@@H](C)C(=O)O)[C@@H](C)O)[C@@H](C)O (stereo partly shown) [pHLIP ICG] (H-AC(X1)DDQNPWRAYLDLLFPTDTLLLDLLWA-OH),Local tolerance,[1],well tolerated; also recorded: well-tolerated and did not result in any pHLIP ICG-related changes
same,IC50,progesterone receptor B,640 nM
same,Ki,progesterone receptor B,510 nM
same,Effect on the central nervous system (FOB),[2],had no observed effect on the central nervous system
